Test results published in US7968091 (GENERAL HOSPITAL, dated 2011).

Biological target: T1, human BMP-2 ligand (carrier-free, R & D Systems), used 125I-labeled and as cold competitor (human, UniProt P12643 283-396, iodinated with [125I] by the modified chloramine-T method (labeled form))
T1 construct: Bought recombinant ligand
Experiment: DSS chemical crosslinking with 125I-BMP-2, Protein A pull-down, SDS-PAGE, autoradiography
Protocol: Ligand iodination and crosslinking. […] This mixture was incubated in the absence or presence of […] disuccinimidyl suberate (DSS, Sigma, St. Louis, Mo.) followed by incubated with Protein A Sepharose beads (Amersham) as previously described (J. L. Babitt et al., J. Biol. Chem., 2005, 280: 29820-29827). Beads were washed with phosphate buffered saline (PBS) and protein eluted by non-reducing Laemmli sample buffer (Bio-Rad). Eluted protein was separated by SDS-PAGE and analyzed by autoradiography.

T1 sequence (P12643 283-396 limits assumed): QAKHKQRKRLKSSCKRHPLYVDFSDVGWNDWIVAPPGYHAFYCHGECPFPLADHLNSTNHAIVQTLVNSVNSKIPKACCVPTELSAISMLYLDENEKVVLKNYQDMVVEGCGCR

B1: ALK5.Fc (a TGF-β type I receptor, R & D Systems) (Fc fusion, UniProt P36897 34-125, looked up)
chain: LQCFCHLCTKDNFTCVTDGLCFVSVTETTDKVIHNSMCIAEIDLIPRDRPFVCAPSSKTGSVTTTYCCNQDHCNKIELPTTVKSSPGLGPVE
notes: Bought fusion protein, negative control; not shown: Fc part of the bought fusion protein; not described
- binding result: no binding (tested: 60 ng ALK5.Fc)
